Laboratory results taken from patent US20110118131A1 (published 2011).
Numbering of substitutions follows the chain as printed. In names and notes the source's numbering stands.

T1: Ep-CAM (UniProt P16422 24-265, limits assumed)
T1 construct: Antigen of the Biacore analysis of ING-1 variants
T1 sequence (looked up): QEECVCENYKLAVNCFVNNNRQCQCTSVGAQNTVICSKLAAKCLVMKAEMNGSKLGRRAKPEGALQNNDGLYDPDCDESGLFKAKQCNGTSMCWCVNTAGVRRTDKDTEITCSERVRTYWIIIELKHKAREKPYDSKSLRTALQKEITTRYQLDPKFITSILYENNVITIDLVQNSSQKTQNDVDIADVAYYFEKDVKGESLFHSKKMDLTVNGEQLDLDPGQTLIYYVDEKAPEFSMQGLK

B1: ING-1 heavy chain G100D (Fab, V domains shown)
VH: QIQLVQSGPELKKPGETVKISCKASGYTFTKYGMNWVKQAPGKGLKWMGWINTYTEEPTYGDDFKGRFAFSLETSASTANLQINNLKSEDTATYFCARFDSAVDYWGQGTSVTVSS
VL: DIVMTQAAFSNPVTLGTSGSISCRSSKSLLHSNGITYLYWYLQKPGQSPQLLIYQMSNLASGVPDRFSSSGSGTDFTLRISRVEAEDVGVYYCAQNLELPRTFGGGTKLEMKR
B2: ING-1 heavy chain N52W (Fab, V domains shown)
VH: B1 VH with N52W, D100G
VL: B1 VL
B3: ING-1 heavy chain T30Y (Fab, V domains shown)
VH: B1 VH with T30Y, D100G
VL: B1 VL
B4: ING-1 heavy chain G100E (Fab, V domains shown)
VH: B1 VH with D100E
VL: B1 VL
B5: ING-1 heavy chain N52H (Fab, V domains shown)
VH: B1 VH with N52H, D100G
VL: B1 VL
B6: ING-1 heavy chain G100Q (Fab, V domains shown)
VH: B1 VH with D100Q
VL: B1 VL
B7: ING-1 heavy chain T53F (Fab, V domains shown)
VH: B1 VH with T53F, D100G
VL: B1 VL
B8: ING-1 heavy chain N52S (Fab, V domains shown)
VH: B1 VH with N52S, D100G
VL: B1 VL
B9: ING-1 heavy chain T28Q (Fab, V domains shown)
VH: B1 VH with T28Q, D100G
VL: B1 VL
B10: ING-1 heavy chain G100F (Fab, V domains shown)
VH: B1 VH with D100F
VL: B1 VL
B11: ING-1 heavy chain T53W (Fab, V domains shown)
VH: B1 VH with T53W, D100G
VL: B1 VL
B12: ING-1 heavy chain N52K (Fab, V domains shown)
VH: B1 VH with N52K, D100G
VL: B1 VL
B13: ING-1 heavy chain P58N (Fab, V domains shown)
VH: B1 VH with P58N, D100G
VL: B1 VL
B14: ING-1 heavy chain N52Q (Fab, V domains shown)
VH: B1 VH with N52Q, D100G
VL: B1 VL
B15: ING-1 heavy chain K31N (Fab, V domains shown)
VH: B1 VH with K31N, D100G
VL: B1 VL
B16: ING-1 heavy chain N52R (Fab, V domains shown)
VH: B1 VH with N52R, D100G
VL: B1 VL
B17: ING-1 heavy chain T53H (Fab, V domains shown)
VH: B1 VH with T53H, D100G
VL: B1 VL
B18: ING-1 heavy chain T53E (Fab, V domains shown)
VH: B1 VH with T53E, D100G
VL: B1 VL
B19: ING-1 heavy chain G100W (Fab, V domains shown)
VH: B1 VH with D100W
VL: B1 VL
B20: ING-1 heavy chain T53N (Fab, V domains shown)
VH: B1 VH with T53N, D100G
VL: B1 VL
B21: ING-1 heavy chain N52Y (Fab, V domains shown)
VH: B1 VH with N52Y, D100G
VL: B1 VL
B22: ING-1 heavy chain T53R (Fab, V domains shown)
VH: B1 VH with T53R, D100G
VL: B1 VL
B23: ING-1 heavy chain K31Y (Fab, V domains shown)
VH: B1 VH with K31Y, D100G
VL: B1 VL
B24: ING-1 heavy chain N52E (Fab, V domains shown)
VH: B1 VH with N52E, D100G
VL: B1 VL
B25: ING-1 heavy chain T30G (Fab, V domains shown)
VH: B1 VH with T30G, D100G
VL: B1 VL
B26: ING-1 heavy chain N52D (Fab, V domains shown)
VH: B1 VH with N52D, D100G
VL: B1 VL
B27: ING-1 heavy chain G100Y (Fab, V domains shown)
VH: B1 VH with D100Y
VL: B1 VL
B28: ING-1 heavy chain T53D (Fab, V domains shown)
VH: B1 VH with T53D, D100G
VL: B1 VL
B29: ING-1 heavy chain T53Q (Fab, V domains shown)
VH: B1 VH with T53Q, D100G
VL: B1 VL
B30: ING-1 heavy chain T53Y (Fab, V domains shown)
VH: B1 VH with T53Y, D100G
VL: B1 VL
B31: ING-1 heavy chain N52F (Fab, V domains shown)
VH: B1 VH with N52F, D100G
VL: B1 VL
B32: ING-1 heavy chain G100H (Fab, V domains shown)
VH: B1 VH with D100H
VL: B1 VL

The binders below were run against T1, Ep-CAM (assay: Biacore, Fab periplasmic extract).

binding result	fold difference in affinity vs original [fold]	Binder
no binding	–	B1
no binding	–	B2
–	2	B3
no binding	–	B4
–	0.02	B5
no binding	–	B6
no binding	–	B7
no binding	–	B8
no binding	–	B9
no binding	–	B10
no binding	–	B11
no binding	–	B12
–	0.9	B13
no binding	–	B14
no binding	–	B15
no binding	–	B16

binding result	fold difference in affinity vs original [fold]	Binder
no binding	–	B17
no binding	–	B18
no binding	–	B19
no binding	–	B20
no binding	–	B21
no binding	–	B22
–	1	B23
no binding	–	B24
no binding	–	B25
–	0.02	B26
no binding	–	B27
no binding	–	B28
no binding	–	B29
no binding	–	B30
no binding	–	B31
no binding	–	B32
